In assay [1] the target is T1, peptide MA3#3 conjugated to KLH (human, conjugated to keyhole limpet haemocyanin (KLH)).
T1 construct: MAGE-A3 residues 73-90 with two added residues at the N-terminus for linkage to the carrier; also called MAGE-A3 peptide #3; peptide #3
T1 peptide: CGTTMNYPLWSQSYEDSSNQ
Kind of assay: ELISA, clone culture supernatant on coated antigen, GAM IgG-HRP, OD 405 nm. The method, then: (§1) Wells of a Nunc MAXISORP™ 96-well were coated with antigen. The antigen was diluted in Tris-buffered saline (TBS) at 0.1 μg/50 μl for purified recombinant MAGE proteins, or at 0.5 μg/50 μl for peptides conjugated to KLH, and distributed at 50 μl per well and dried overnight at 37° C. The wells were washed several times in TBS and 50 μl of TBS-1% casein was added to each well. Wells were incubated for 1 hour at 37° C. and washed again several times in TBS.
(§2) In total, 75 clones from Example 5 that grew easily after transfer into 24-well plates were tested two days later in ELISA for reactivity with the following antigens: recombinant MAGE-A3, recombinant MAGE-A2; recombinant MAGE-A12; peptide MA3 #1 conjugated to KLH; peptide MA3 #2 conjugated to KLH; and peptide MA3#3 conjugated to KLH.
(§3) For each clone, 50 μl of culture medium supernatant was transferred into a well of a 96-well plate containing 0.1 μg/well of one of the recombinant MAGE proteins or 0.5 μg/well of one of the peptides conjugated to KLH. As positive control, 50 μl of 57B hybridoma supernatant was tested on each of the antigens.
In general terms: In an ELISA, binding on a coated surface is turned into a signal by an enzyme label.

Assay [2] concerns the target T2, MAGE-A12 recombinant protein (LVL314) (human, UniProt P43365 1-314).
T2 construct: Purified full-length recombinant protein in ELISA and Western blot; the same id is used for MAGE-A12 in lysates of transfected HEK 293 cells; also called recMA12
Described as above. The method, then:
as §1, §2, §3

In assay [3] the target is T3, peptide MA3#2 conjugated to KLH (human, also: conjugated to KLH).
T3 construct: MAGE-A3 residues 163-180 with an added N-terminal residue; by an error of synthesis it lacks the Ile of position 177; also called MAGE-A3 peptide #2; peptide #2
T3 peptide: CGIELMEVDPIGHLYFAT
The assay is described as above. The method, then:
as §1, §2, §3

The target of assay [4] is T4, MAGE-A2 recombinant protein (LVL313) (human, UniProt P43356 1-314).
T4 construct: Purified full-length recombinant protein in ELISA and Western blot; the same id is used for MAGE-A2 in lysates of transfected HEK 293 cells; also called recMA2
Described as above. The method, then:
as §1, §2, §3

In assay [5] the target is T5, peptide MA3#1 conjugated to KLH (human, also: conjugated to KLH).
T5 construct: MAGE-A3 residues 137-147 with added residue(s) at the N-terminus for linkage to the carrier; also called MAGE-A3 peptide #1; peptide #1
T5 peptide: CGSVVGNWQYFF
Described as above. The method, then: as §1, §2, §3

Assay [6] addresses T6, full-length recombinant MAGE-A3 protein (human, UniProt P43357 1-314).
T6 construct: Full-length recombinant protein (made in baculovirus or E. coli, GSK); Also used here for endogenous MAGE-A3 in GERL cell lysate and for summary statements on MAGE-A3; also called recMA3; MA3
In words: ELISA, biotinylated mAb 23D2 on 0.1 µg/well recombinant MAGE-A3, OD 405 nm. The method, then: An ELISA against MAGE-A3 was then performed using dilutions of biotinylated mAb 23D2 ([…], 0.1, 0.15, 0.2, 0.25 and 0.3 μg/50 μl) to determine useful conditions of use of the biotinylated mAb 23D2.

For assay [7], the target named is T3, peptide MA3#2 conjugated to KLH. In words: ELISA, hybridoma supernatant on 0.5 µg/well peptide-KLH.

Where no end group is shown, it is not given here.

T4 sequence (P43356 whole entry): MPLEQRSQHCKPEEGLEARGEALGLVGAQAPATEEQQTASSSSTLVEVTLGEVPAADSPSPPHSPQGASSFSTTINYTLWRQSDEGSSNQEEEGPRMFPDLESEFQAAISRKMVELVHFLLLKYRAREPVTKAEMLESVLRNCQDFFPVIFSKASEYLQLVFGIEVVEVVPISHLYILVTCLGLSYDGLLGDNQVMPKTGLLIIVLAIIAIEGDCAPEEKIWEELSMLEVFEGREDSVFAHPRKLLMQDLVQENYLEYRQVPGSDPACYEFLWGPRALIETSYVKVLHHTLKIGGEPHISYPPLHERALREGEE
T2 sequence (P43365 whole entry): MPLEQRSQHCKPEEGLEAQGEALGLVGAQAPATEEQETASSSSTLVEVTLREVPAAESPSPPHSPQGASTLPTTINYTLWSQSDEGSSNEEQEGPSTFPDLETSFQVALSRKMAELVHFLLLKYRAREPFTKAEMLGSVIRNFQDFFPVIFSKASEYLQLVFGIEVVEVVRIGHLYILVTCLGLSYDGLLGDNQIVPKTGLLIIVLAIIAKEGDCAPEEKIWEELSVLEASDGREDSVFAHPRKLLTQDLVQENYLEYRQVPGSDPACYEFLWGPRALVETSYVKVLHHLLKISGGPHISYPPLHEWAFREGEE
T6 sequence (P43357 whole entry): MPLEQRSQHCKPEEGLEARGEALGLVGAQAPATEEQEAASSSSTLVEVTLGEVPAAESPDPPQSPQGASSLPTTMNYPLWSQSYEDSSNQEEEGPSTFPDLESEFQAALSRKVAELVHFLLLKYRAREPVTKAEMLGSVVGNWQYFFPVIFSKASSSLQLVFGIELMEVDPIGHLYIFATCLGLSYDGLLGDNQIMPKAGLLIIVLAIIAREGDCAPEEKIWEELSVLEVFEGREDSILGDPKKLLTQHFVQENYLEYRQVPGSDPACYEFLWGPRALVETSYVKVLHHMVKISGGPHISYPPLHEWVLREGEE

B1: mAb 16G7 (antibody, IgG1, V domains shown)
VH: EVMVVESGGGLVKPGGSLKLSCAASGFTFRTNAMSWVRQTPEKRLEWVATITSGGGSTYYPVSVKGRFTISRDNAKNTLYLQMSSLRSEDTAIYYCVRQDYFDYWGQGTFVIVSS
VL: QAVVTQESALTTSPGETVTLTCRSSTGAVTSTNYANWVQEKPDHLFTGLIGGTNNRAPGVPARFSGSLIGDKAALTITGAQTEDEAIYFCALWYSNHWVFGGGTKLTVL
notes: also called clone 16G7; hybridoma 16G7
Consider B1, for which the binding result is “binds” in assay [1]; “no binding” in assay [2]; “no binding” in assay [3]; “no binding” in assay [4]; “no binding” in assay [5].

B2: mAb 23D2 (antibody, IgG2a, V domains shown)
VH: DVKLVESGGGLVKPGGSLKVSCVASGFTFSSYTMSWVRQTPEKRLEWVATITSGGGSSYYPDSVKGRFTISRDNAKNTLYLQITSLKSEDTAMYYCTSGGGVLLRLPLFAYWGQGTTLTVSS
VL: QAVVTQESALTTSPGETVTLTCRSSTGAVTASNYANWVQEKPDHSFTGLIGGINNRAPGVPARFSGSLIGDKAALTITGAQTEDEAIYFCALWYNNHWVFGGGTKLTVL
modifications: In the FIG. 8 ELISA and the FIG. 9 competition assay the antibody was biotinylated; the sites are not stated and the letters do not carry them.
notes: also called clone 23D2; hybridoma 23D2
B2: the binding result is recorded as “binds” in assay [1]; “no binding” in assay [2]; “no binding” in assay [3]; “no binding” in assay [4]; “no binding” in assay [5]. For the same molecule, the “EC50 (read off the curve)” value in assay [6] is around 0.006 µg/50 µl.

B3: mAb 1B1 (antibody, IgG1, V domains shown)
VH: DVQLQESGPGLVKPSQSLSLTCTVTGYSITSDYVWNWIRQFPGNKLEWMGYIGHSGRTSYNPSLKSRISITRDTSKNQFFLQLNSVTSEDTATYYCARGGNNGFAYWGQGTLVTVSA
VL: DIVMTQSPSSLTVTAGEKVTMSCKSSQSLLNSGNQKNYLTWYQQKPGQPPKLLIYWTSTRDSGVPDRFTGSGSGTDFTLTISSVQAEDLAVYYCQNDYSYPPTFGGGTKLEIKR
notes: Tested as hybridoma supernatant; also called clone 1B1; hybridoma 1B1
Consider B3, for which the binding result is “binds” in assay [1]; “no binding” in assay [2]; “no binding” in assay [4]; “no binding” in assay [5]; “no binding” in assay [7].
